In patent US20240059769A1 (BIOLOJIC DESIGN, published 2024):
Residue numbers refer to the chain shown, from its start.

B1: BDG38.132 (antibody, V domains shown)
VH: QMQLVESGGGVVQPGRSLRLSCAASGFEFRTYGMHWVRQAPGKGLEWVGVIWDDGSNTHYADSVKGRFTITRDNSKNTLNLQMNSLRAEDTAVYYCVRAPQWYLTAEAFDLWGQGTMVTVSS
VL: SYILTQPPSVSVAPGETATITCGGNLIGARLVHWYQQKPGQAPVLVIYDDSDRPSRIPERFSGSNIGNTATLTISRVEAGDEADYYCQVWDYSSDHMVFGGGTKLTVL
notes: IgG1
B2: BDG38.135 (antibody, V domains shown)
VH: B1 VH with R16Q, E28A, V48L, G49A, D53Y, L104N, T105S
VL: B1 VL with I3V, E16Q, T19R, I47V, R56H, I66S, Y92H, S94A, H96T
B3: BDG38.076 (antibody, V domains shown)
VH: B1 VH with E28A, G49A, N57A
VL: SYVLTQPPSVSVAPGETASITCGGNMIGGYLVHWYQQKPGQAPLLVIYDDVDRPARIPERFSGSNSGNTATLTISRVEAGDEADYYCQVWDHDTNHMVFGGGTKLTVL
notes: IgG1
B4: BDG38.139 (antibody, V domains shown)
VH: B1 VH with E28A, G49A, T105S
VL: B3 VL with S19T, G29A, D93N, T94S, N95D
notes: IgG1
B5: BDG38.137 (antibody, V domains shown)
VH: B1 VH with R16Q, G49A
VL: B1 VL with I3V, R56H, I66S, S94A, H96T
notes: IgG1
B6: BDG38.140 (antibody, V domains shown)
VH: B1 VH with R19T, A88V, V97A
VL: B1 VL with R30K, S75E, R76D, S94A, D95N
notes: IgG1
B7: BDG38.126 (antibody, V domains shown)
VH: B1 VH
VL: B1 VL with E16Q, T19R, R30K, S75E, A79E
notes: IgG1
B8: BDG38.116 (antibody, V domains shown)
VH: B1 VH with R19T, G49A, A88V
VL: B1 VL with I3V, E16Q, S75E, S93Y, H96T
notes: IgG1
B9: BDG38.092 (antibody, V domains shown)
VH: B1 VH with R19T, V48L, G49A, A88V
VL: B1 VL with I3V, R76D, A79E, S93Y
notes: IgG1
B10: BDG38.096 (antibody, V domains shown)
VH: B1 VH with G49A, A88V
VL: B1 VL with T19R, A79E, H96S
notes: IgG1
B11: BDG38.112 (antibody, V domains shown)
VH: B1 VH with V48L, D53Y
VL: B1 VL with E16Q, S75E, A79E, H96T, M97Y
notes: IgG1
B12: BDG38.090 (antibody, V domains shown)
VH: B1 VH with R19T, V48L, A88V, V97A
VL: B1 VL with T19R, I47V, S75E, R76D, A79E, S93Y
notes: IgG1
B13: BDG38.129 (antibody, V domains shown)
VH: B1 VH with R19T, A88V, V97A
VL: B1 VL with E16Q, R30K, R76D, A79E
notes: IgG1
B14: Ab clone 38.019 (yeast surface display) (scFv, V domains shown)
VH: B1 VH with E28A, G49A, D53Y, T105S
VL: B1 VL with I3V, E16Q, T19R, A29S, R30K, I47V, I66S, D95N, M97V
notes: YSD clone; also called BDG38_019
B15: Ab clone 38.018 (yeast surface display) (scFv, V domains shown)
VH: B1 VH with E28A, G49A, V97A, T105S
VL: B1 VL with I3V, E16Q, T19R, A29S, R30K, I47V, I66S, Y92H, M97V
notes: YSD clone; also called BDG38_018
B16: Ab clone 38.026 (yeast surface display) (scFv, V domains shown)
VH: B1 VH with E28A, G49A, D53Y, N57A, T105S
VL: B1 VL with I3V, E16Q, A29S, R30K, I47V, Y92H, M97V
notes: YSD clone; also called BDG38_026
B17: Ab clone 38.014 (yeast surface display) (scFv, V domains shown)
VH: B1 VH with E28A, G49A, D53Y, T105S
VL: B1 VL with I3V, E16Q, T19R, R30K, I47V, I66S, Y92H, M97V
notes: YSD clone; also called BDG38_014

biological target: T1, recombinant human IL-13 (human, UniProt P35225 35-146); assay: cell-based or functional assay
T1 sequence (P35225 35-146 limits assumed): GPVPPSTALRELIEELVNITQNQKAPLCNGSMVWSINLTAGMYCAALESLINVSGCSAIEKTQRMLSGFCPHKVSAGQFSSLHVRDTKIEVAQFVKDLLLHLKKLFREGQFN

| Binder | IC50 CD23 |
| --- | --- |
| B1 | 430 pM |
| B2 | 408 pM |
| B3 | 308 pM |
| B4 | 12 pM |
| B5 | 373 pM |
| B6 | 146 pM |
| B7 | 86.8 pM |
| B8 | 83.7 pM |
| B9 | 67.5 pM |
| B10 | 250 pM |
| B11 | 59.4 pM |
| B12 | 6.56 pM |
| B13 | 29 pM |

biological target: T2, human TSLP (human, UniProt Q969D9 29-159); assay: cell-based or functional assay

| Binder | IC50 TARC |
| --- | --- |
| B1 | 22400 pM |
| B2 | 804 pM |
| B3 | 3210 pM |
| B5 | 823 pM |
| B7 | 2580 pM |
| B8 | 59400 pM |
| B9 | 5880 pM |
| B10 | 23400 pM |
| B11 | 104 pM |
| B12 | 7.55 pM |

biological target: T1, recombinant human IL-13; assay: SPR

| Binder | Kd | koff | kon |
| --- | --- | --- | --- |
| B1 | 17.8 pM | 0.000184 s⁻¹ | 1.03e+07 M⁻¹ s⁻¹ |
| B4 | 27.5 pM | 0.000212 s⁻¹ | 7.71e+06 M⁻¹ s⁻¹ |
| B5 | 58 pM | 0.000252 s⁻¹ | 4.34e+06 M⁻¹ s⁻¹ |
| B6 | 34.4 pM | 0.000168 s⁻¹ | 4.88e+06 M⁻¹ s⁻¹ |
| B7 | 29.1 pM | 0.000143 s⁻¹ | 4.92e+06 M⁻¹ s⁻¹ |
| B13 | 16.7 pM | 0.000116 s⁻¹ | 6.96e+06 M⁻¹ s⁻¹ |

biological target: T2, human TSLP; assay: SPR

| Binder | Kd | koff | kon |
| --- | --- | --- | --- |
| B1 | 3.41 pM | 3.55e-05 s⁻¹ | 1.04e+07 M⁻¹ s⁻¹ |
| B4 | 3.27 pM | 2.54e-05 s⁻¹ | 7.78e+06 M⁻¹ s⁻¹ |
| B5 | 16.1 pM | 7.01e-05 s⁻¹ | 4.36e+06 M⁻¹ s⁻¹ |
| B6 | 8.27 pM | 2.79e-05 s⁻¹ | 3.38e+06 M⁻¹ s⁻¹ |
| B7 | 17.4 pM | 6.72e-05 s⁻¹ | 3.87e+06 M⁻¹ s⁻¹ |
| B13 | 22.6 pM | 9.12e-05 s⁻¹ | 4.03e+06 M⁻¹ s⁻¹ |

biological target: T3, cynomolgus monkey (cyno) TSLP (cynomolgus monkey, UniProt A0A7N9CAT7 29-159); assay: SPR
T3 construct: also called cTSLP; cynomolgus TSLP
T3 sequence (A0A7N9CAT7 entry or part of it): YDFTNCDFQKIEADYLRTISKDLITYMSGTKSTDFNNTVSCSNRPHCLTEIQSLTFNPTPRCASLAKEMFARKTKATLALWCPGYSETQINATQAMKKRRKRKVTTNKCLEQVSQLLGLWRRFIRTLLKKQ

| Binder | Kd | koff | kon |
| --- | --- | --- | --- |
| B1 | 0.321 pM | 2.19e-06 s⁻¹ | 6.83e+06 M⁻¹ s⁻¹ |
| B3 | 0.00512 pM | 3.99e-08 s⁻¹ | 7.8e+06 M⁻¹ s⁻¹ |
| B4 | 2.39 pM | 1.55e-05 s⁻¹ | 6.5e+06 M⁻¹ s⁻¹ |
| B6 | 0.614 pM | 2.78e-06 s⁻¹ | 4.53e+06 M⁻¹ s⁻¹ |
| B8 | 27.1 pM | 0.000386 s⁻¹ | 1.43e+07 M⁻¹ s⁻¹ |
| B9 | 4.48 pM | 1.72e-05 s⁻¹ | 3.84e+06 M⁻¹ s⁻¹ |
| B10 | 18.1 pM | 6.14e-05 s⁻¹ | 3.39e+06 M⁻¹ s⁻¹ |
| B12 | 9.01 pM | 5.53e-05 s⁻¹ | 6.14e+06 M⁻¹ s⁻¹ |
| B13 | 14.1 pM | 5.27e-05 s⁻¹ | 3.75e+06 M⁻¹ s⁻¹ |

biological target: T4, hTSLP-His (human, UniProt Q969D9 29-159, limits assumed); assay: competition ELISA, 7 nM TSLP-His pre-incubated with antibody; competitor Tezepelumab coated
T4 construct: bought; also called hTSLP (ACROBiosystems TSP-H52Hb); not shown: His tag

| Binder | IC50 |
| --- | --- |
| B1 | 9200 pM |
| B3 | 5380 pM |
| B4 | 9570 pM |
| B5 | 10900 pM |
| B6 | 5630 pM |
| B7 | 5950 pM |
| B8 | 5120 pM |
| B9 | 7380 pM |
| B10 | 5870 pM |
| B11 | 29100 pM |
| B12 | 7310 pM |
| B13 | 5490 pM |

biological target: T4, hTSLP-His; assay: cell-based or functional assay

| Binder | IC50 [pM], STAT5 phosphorylation inhibition in MUTZ5 cells |
| --- | --- |
| B1 | 0.386 pM |
| B3 | 30.1 pM |
| B4 | 89 pM |
| B5 | 1.85 pM |
| B6 | 2.21 pM |
| B7 | 0.0421 pM |
| B9 | 33 pM |
| B11 | 11400 pM |
| B12 | 43.4 pM |
| B13 | 0.676 pM |

biological target: T1, recombinant human IL-13; assay: cell-based or functional assay; remark: another data set of the same source

| Binder | HEK-IL-13 [nM] (IC50, STAT6 reporter) |
| --- | --- |
| B1 | 0.0899 nM |
| B2 | 0.406 nM |
| B3 | 0.0494 nM |
| B4 | 0.0464 nM |
| B5 | 0.195 nM |
| B6 | 0.043 nM |
| B7 | 0.079 nM |
| B8 | 0.18 nM |
| B9 | 0.12 nM |
| B10 | 0.15 nM |
| B11 | 0.0367 nM |
| B12 | 0.103 nM |
| B13 | 0.0725 nM |

biological target: T1, recombinant human IL-13; assay: SPR; remark: another data set of the same source

| Binder | Kd | koff | kon |
| --- | --- | --- | --- |
| B3 | 35.4 pM | 0.000231 s⁻¹ | 6.53e+06 M⁻¹ s⁻¹ |
| B8 | 21 pM | 0.000116 s⁻¹ | 5.51e+06 M⁻¹ s⁻¹ |
| B9 | 9.5 pM | 5.37e-05 s⁻¹ | 5.65e+06 M⁻¹ s⁻¹ |
| B10 | 25.1 pM | 0.000155 s⁻¹ | 6.19e+06 M⁻¹ s⁻¹ |
| B11 | 17.3 pM | 4.02e-05 s⁻¹ | 2.32e+06 M⁻¹ s⁻¹ |
| B12 | 19.8 pM | 0.00013 s⁻¹ | 6.57e+06 M⁻¹ s⁻¹ |

biological target: T2, human TSLP; assay: SPR; remark: another data set of the same source

| Binder | Kd | koff | kon |
| --- | --- | --- | --- |
| B3 | 1.61 pM | 3.22e-05 s⁻¹ | 2e+07 M⁻¹ s⁻¹ |
| B8 | 7.27 pM | 3.95e-05 s⁻¹ | 5.44e+06 M⁻¹ s⁻¹ |
| B9 | 3.92 pM | 2.46e-05 s⁻¹ | 6.28e+06 M⁻¹ s⁻¹ |
| B10 | 21 pM | 0.000133 s⁻¹ | 6.33e+06 M⁻¹ s⁻¹ |
| B11 | 258 pM | 0.000274 s⁻¹ | 1.06e+06 M⁻¹ s⁻¹ |
| B12 | 11.8 pM | 0.000113 s⁻¹ | 9.57e+06 M⁻¹ s⁻¹ |

biological target: T2, human TSLP; assay: yeast surface display, affinity maturation library

| Binder | binding result |
| --- | --- |
| B14 | binds |
| B15 | binds |
| B16 | binds |
| B17 | binds |

biological target: T5, recombinant cynomolgus monkey IL-13 (cynomolgus monkey, UniProt Q0PW92 21-132); assay: SPR
T5 construct: bought; also called rc-IL-13; cIL-13
T5 sequence (Q0PW92 entry or part of it): as the sequence (P35225 35-146 limits assumed) above, with G1S, R10K, M42V, S67N, H83R, L100V counted along it

| Binder | Kd | koff | kon |
| --- | --- | --- | --- |
| B1 | 56.3 pM | 0.00201 s⁻¹ | 3.58e+07 M⁻¹ s⁻¹ |
| B3 | 822 pM | 0.00671 s⁻¹ | 8.16e+06 M⁻¹ s⁻¹ |
| B4 | 339 pM | 0.0077 s⁻¹ | 2.27e+07 M⁻¹ s⁻¹ |
| B6 | 23.8 pM | 0.00131 s⁻¹ | 5.54e+07 M⁻¹ s⁻¹ |
| B8 | 27 pM | 0.000847 s⁻¹ | 3.14e+07 M⁻¹ s⁻¹ |
| B9 | 42.8 pM | 0.00129 s⁻¹ | 3.01e+07 M⁻¹ s⁻¹ |
| B10 | 44.2 pM | 0.00242 s⁻¹ | 5.47e+07 M⁻¹ s⁻¹ |
| B12 | 75.2 pM | 0.00187 s⁻¹ | 2.49e+07 M⁻¹ s⁻¹ |
| B13 | 23.1 pM | 0.0014 s⁻¹ | 6.05e+07 M⁻¹ s⁻¹ |
